Two molecules from EP0621339B1 (TAKARA SHUZO CO. LTD., dated 2001) can be followed below.

Test in all cases: cell-based or functional assay
Experiment [1] has as its target HA molecule (haemagglutinin) of A/Adachi/2/57 (H2N2) (influenza A virus, H2N2 subtype, strain A/Adachi/2/57).
In experiment [2] the target is HA molecule (haemagglutinin) of A/Bangkok/10/83 (H1N1) (influenza A virus, H1N1 subtype, strain A/Bangkok/10/83).
Experiment [3] addresses HA molecule (haemagglutinin) of A/Fukuoka/C29/85 (H3N2) (influenza A virus, H3N2 subtype, strain A/Fukuoka/C29/85).
Experiment [4] has as its target HA molecule (haemagglutinin) of A/Ibaraki/1/90 (H3N2) (influenza A virus, H3N2 subtype, strain A/Ibaraki/1/90).
Experiment [5] addresses HA molecule (haemagglutinin) of A/Izumi/5/65 (H2N2) (influenza A virus, H2N2 subtype, strain A/Izumi/5/65).
The target in experiment [6] is HA molecule (haemagglutinin) of A/Kaizuka/2/65 (H2N2) (influenza A virus, H2N2 subtype, strain A/Kaizuka/2/65).
Experiment [7] has as its target HA molecule (haemagglutinin) of A/Kitakyushu/159/93 (H3N2) (influenza A virus, H3N2 subtype, strain A/Kitakyushu/159/93).
The target in experiment [8] is HA molecule (haemagglutinin) of A/Kumamoto/1/65 (H2N2) (influenza A virus, H2N2 subtype, strain A/Kumamoto/1/65).
The target of experiment [9] is HA molecule (haemagglutinin) of A/Osaka/930/88 (H1N1) (influenza A virus, H1N1 subtype, strain A/Osaka/930/88).
In experiment [10] the target is HA molecule (haemagglutinin) of A/Sichuan/2/87 (H3N2) (influenza A virus, H3N2 subtype, strain A/Sichuan/2/87).
The target in experiment [11] is HA molecule (haemagglutinin) of A/Suita/1/90 (H3N2) (influenza A virus, H3N2 subtype, strain A/Suita/1/90).
Experiment [12] deals with HA molecule (haemagglutinin) of A/Yamagata/120/86 (H1N1) (influenza A virus, H1N1 subtype, strain A/Yamagata/120/86).
For experiment [13], the target named is HA molecule (haemagglutinin) of A1/FM/1/47 (H1N1) (influenza A virus, H1N1 subtype, strain A1/FM/1/47).
Experiment [14] addresses HA molecule (haemagglutinin) of A2/Aichi/2/68 (H3N2) (influenza A virus, H3N2 subtype, strain A2/Aichi/2/68).
For experiment [15], the target named is HA molecule (haemagglutinin) of influenza B virus B/Nagasaki/1/87 (influenza B virus, strain B/Nagasaki/1/87).
In experiment [16] the target is HA molecule (haemagglutinin) of A/PR/8/34 (H1N1) (influenza A virus, H1N1 subtype, strain …, UniProt P03452 18-565).
Chain of HA molecule (haemagglutinin) of A/PR/8/34 (H1N1) (P03452 18-565): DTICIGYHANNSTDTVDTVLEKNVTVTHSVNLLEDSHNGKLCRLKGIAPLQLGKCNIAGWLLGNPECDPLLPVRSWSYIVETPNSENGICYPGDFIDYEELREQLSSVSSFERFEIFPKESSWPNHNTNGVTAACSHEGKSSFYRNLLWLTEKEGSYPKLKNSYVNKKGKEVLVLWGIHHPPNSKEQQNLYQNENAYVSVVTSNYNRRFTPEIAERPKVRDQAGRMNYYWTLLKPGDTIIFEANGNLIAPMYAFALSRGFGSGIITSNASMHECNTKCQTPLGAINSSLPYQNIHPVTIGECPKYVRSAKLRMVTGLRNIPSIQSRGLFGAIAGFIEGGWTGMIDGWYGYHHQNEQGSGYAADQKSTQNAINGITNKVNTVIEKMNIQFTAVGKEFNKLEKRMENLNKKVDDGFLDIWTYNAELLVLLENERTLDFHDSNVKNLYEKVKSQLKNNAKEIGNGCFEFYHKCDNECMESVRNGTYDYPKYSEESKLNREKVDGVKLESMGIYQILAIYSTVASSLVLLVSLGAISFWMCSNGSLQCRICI

For monoclonal antibody C179, the HI (hemagglutination inhibition titer) (fold dilution of the ascites fluid) in experiment [1], in experiment [2], in [3], in experiment [4], in [5] and in [6] was under 32 throughout. In addition, the HI (hemagglutination inhibition titer) (fold dilution of the ascites fluid) in experiment [7], in experiment [8], in [9], in experiment [10], in experiment [11] and in [12] was under 32 throughout. Besides, the HI (hemagglutination inhibition titer) (fold dilution of the ascites fluid) in experiment [13], in experiment [14] and in experiment [15] was under 32 in each case.

B1: monoclonal antibody C179 (antibody)
chain 1: EVKLVESGGGLVQPGGSLRLSCGTSGFTLTDDYMTWVRQPPGKALEWLGFIRDRANGYTTEYSASVKGRFTISRDNSQSIVYLQMNTLRVEDSATYYCARPKGYFPYAMDYWGQGT
chain 2: DIQMTQSPASQSASLGESVTITCLASQTIGTWLAWYQQKPGKSPQLLIYAATSLADGVPSRFSGSGSGTKFSFKISSLQAEDFVSYYCQQLYSTPW
On to B1, for which the “HI (hemagglutination inhibition titer)” value in [16] is < 32 fold dilution of the ascites fluid.
